Experimental data published in article PMC7979924, “Lin28, a major translation reprogramming factor, gains access to YB-1-packaged mRNA through its cold-shock domain”.

What was measured:
YB-1-CSD = YB-1-CSD (Homo sapiens, UniProt P67809 1-180); assay: NMR (1H-15N HSQC); 298 K; spectra stated as already published (ref 7); EMSA: 20 mM Tris pH 7.6, 40 mM NaCl, 0.5 mM DTT, room temperature, 30 min; NMR: 50 mM potassium phosphate pH 7.0, 50 uM 15N-protein, 298 K (C10) or 303 K (C20); conditions: protein: recombinant
Lin28-CSD = biological target: T1, Lin28-CSD (Homo sapiens, UniProt Q9H9Z2 32-136); assay: NMR (1H-15N HSQC); 298 K; EMSA: 20 mM Tris pH 7.6, 40 mM NaCl, 0.5 mM DTT, room temperature, 30 min; NMR: 50 mM potassium phosphate pH 7.0, 50 uM 15N-protein, 298 K (C10) or 303 K (C20); conditions: protein: recombinant; tags: His6
T1 sequence: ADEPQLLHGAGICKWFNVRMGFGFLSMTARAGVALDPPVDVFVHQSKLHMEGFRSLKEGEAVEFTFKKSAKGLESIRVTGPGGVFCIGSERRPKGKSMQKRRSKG

YB-1-CSD, sequence (P67809 1-180): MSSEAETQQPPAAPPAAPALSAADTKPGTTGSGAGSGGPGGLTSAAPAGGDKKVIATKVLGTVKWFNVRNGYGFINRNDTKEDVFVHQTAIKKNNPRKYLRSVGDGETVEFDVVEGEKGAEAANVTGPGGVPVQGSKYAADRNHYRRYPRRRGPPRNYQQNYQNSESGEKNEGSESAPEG

B1: poly(C) DNA C10 (ssDNA)
DNA: CCCCCCCCCC
binding result (YB-1-CSD): binds | binding result (Lin28-CSD): binds
